The source of these data is paper doi:10.1101/2025.02.04.636395, “Identification of a RAB32-LRMDA-Commander membrane trafficking complex reveals the molecular mechanism of human oculocutaneous albinism type 7” (bioRxiv, 2025).

This test has as its target T1, recombinant LRMDA (human, UniProt A0A087WWI0 1-226).
T1 construct: synthetic gene codon-optimised for S. frugiperda; also called tag-less LRMDA; purified LRMDA; source: Sf21 insect cells (baculovirus), purified (HaloLink resin, TEV cleavage); not shown: HaloTag, N-terminal, cleaved
T1 sequence (looked up): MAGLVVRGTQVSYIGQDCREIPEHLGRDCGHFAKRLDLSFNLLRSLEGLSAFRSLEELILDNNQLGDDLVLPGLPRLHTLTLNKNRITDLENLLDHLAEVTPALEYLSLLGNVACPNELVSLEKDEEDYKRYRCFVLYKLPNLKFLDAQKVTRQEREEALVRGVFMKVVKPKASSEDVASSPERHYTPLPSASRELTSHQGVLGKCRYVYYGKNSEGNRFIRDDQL
Kind of test: pull-down; Retriever (0.5 µM, His-tagged VPS29) held on TALON resin; 1 µM LRMDA and/or 1 µM RAB32 added; 50 mM HEPES pH 7.2, 150 mM NaCl, 2 mM β-mercaptoethanol, 0.1% Triton X-100; 45 min at 4 °C; washes with 10 mM imidazole; LRMDA binding slightly increased in the presence of RAB32. The note with it: both partners purified.

B1: recombinant RAB32 (natural protein, human, UniProt Q13637 1-225, looked up)
chain: MAGGGAGDPGLGAAAAPAPETREHLFKVLVIGELGVGKTSIIKRYVHQLFSQHYRATIGVDFALKVLNWDSRTLVRLQLWDIAGQERFGNMTRVYYKEAVGAFVVFDISRSSTFEAVLKWKSDLDSKVHLPNGSPIPAVLLANKCDQNKDSSQSPSQVDQFCKEHGFAGWFETSAKDNINIEEAARFLVEKILVNHQSFPNEENDVDKIKLDQETLRAENKSQCC
notes: RAB32, human; synthetic gene codon-optimised for S. frugiperda; also called tag-less RAB32; purified RAB32; source: Sf21 insect cells (baculovirus), purified (Glutathione Sepharose, TEV cleavage); not shown: GST, N-terminal, cleaved
For B1, the binding result is “binds”.
